Assay [1] addresses T1, BSA (bovine, UniProt P02769).
T1 construct: coated control antigen
The assay can be described thus: ELISA, coated BSA, dilution series, OD450 [1/3]. For orientation: In an ELISA, binding on a coated surface is turned into a signal by an enzyme label.

The target in assay [2] is T2, MERS-COV spike expressed on transfected cells (MERS-CoV, UniProt K9N5Q8 18-1353).
T2 sequence: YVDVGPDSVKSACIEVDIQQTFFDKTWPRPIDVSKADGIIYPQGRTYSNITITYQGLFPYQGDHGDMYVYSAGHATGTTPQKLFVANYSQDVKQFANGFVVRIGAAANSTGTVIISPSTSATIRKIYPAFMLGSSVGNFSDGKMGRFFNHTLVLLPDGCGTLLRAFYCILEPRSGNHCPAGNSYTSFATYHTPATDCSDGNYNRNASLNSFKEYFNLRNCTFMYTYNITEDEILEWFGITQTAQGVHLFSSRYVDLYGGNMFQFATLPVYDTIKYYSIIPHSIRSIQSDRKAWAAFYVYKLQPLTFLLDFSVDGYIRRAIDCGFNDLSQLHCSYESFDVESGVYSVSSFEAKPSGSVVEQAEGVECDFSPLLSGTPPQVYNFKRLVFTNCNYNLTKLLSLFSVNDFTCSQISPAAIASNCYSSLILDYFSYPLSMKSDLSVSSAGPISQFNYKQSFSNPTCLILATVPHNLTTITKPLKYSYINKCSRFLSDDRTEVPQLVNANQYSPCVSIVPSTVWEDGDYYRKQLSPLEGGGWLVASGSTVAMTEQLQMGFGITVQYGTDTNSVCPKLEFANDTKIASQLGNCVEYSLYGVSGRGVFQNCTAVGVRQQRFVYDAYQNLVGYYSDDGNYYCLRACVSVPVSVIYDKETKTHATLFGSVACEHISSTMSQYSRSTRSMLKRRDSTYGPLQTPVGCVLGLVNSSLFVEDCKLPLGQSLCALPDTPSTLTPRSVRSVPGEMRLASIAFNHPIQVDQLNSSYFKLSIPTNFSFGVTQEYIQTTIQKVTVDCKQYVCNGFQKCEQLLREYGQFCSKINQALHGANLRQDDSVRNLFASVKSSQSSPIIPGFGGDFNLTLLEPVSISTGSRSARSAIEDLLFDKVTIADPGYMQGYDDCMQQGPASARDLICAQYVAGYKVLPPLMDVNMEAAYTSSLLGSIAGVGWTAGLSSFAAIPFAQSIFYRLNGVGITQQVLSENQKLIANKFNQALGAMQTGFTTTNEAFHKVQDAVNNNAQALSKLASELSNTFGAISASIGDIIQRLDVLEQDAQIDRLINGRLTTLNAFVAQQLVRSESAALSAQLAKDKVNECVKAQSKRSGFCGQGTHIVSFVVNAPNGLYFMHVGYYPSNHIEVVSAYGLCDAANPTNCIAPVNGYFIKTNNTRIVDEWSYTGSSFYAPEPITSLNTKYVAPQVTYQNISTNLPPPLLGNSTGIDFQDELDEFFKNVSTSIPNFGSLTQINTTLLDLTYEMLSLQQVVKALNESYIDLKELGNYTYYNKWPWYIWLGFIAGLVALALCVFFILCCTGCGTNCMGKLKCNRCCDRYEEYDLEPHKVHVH
Put plainly: flow cytometry, transfected HEK cells, MFI GFP+/GFP- cells [2/3].

Assay [3] addresses T3, SARS-COV-2 RBD (His-tagged, Sinobiologicals) (SARS-CoV-2 (Wuhan), UniProt P0DTC2 319-541). The assay can be described thus: ELISA, coated antigen, dilution series, OD450 [1/3].
Assay [4] has as its target T3, SARS-COV-2 RBD (His-tagged, …). Put plainly: ELISA, coated antigen, dilution series, OD450 [3/3].
Assay [5] has as its target T1, BSA. Put plainly: ELISA, coated BSA, dilution series, OD450 [3/3].
Assay [6] deals with T1, BSA. The assay can be described thus: ELISA, coated BSA, dilution series, OD450 [2/3].
For assay [7], the target named is T2, MERS-COV spike expressed on transfected …. The assay can be described thus: flow cytometry, transfected HEK cells, MFI GFP+/GFP- cells [1/3].
Assay [8] concerns the target T3, SARS-COV-2 RBD (His-tagged, …). Put plainly: ELISA, periplasmic extract 1/10, OD450 antigen/OD450 BSA [B].
The target is the same in assay [9]. Put plainly: ELISA, periplasmic extract 1/10, OD450 antigen/OD450 BSA [D00002 FIG. 1 cont. D].
Assay [10] deals with T2, MERS-COV spike expressed on transfected …. The assay can be described thus: flow cytometry, transfected HEK cells, MFI GFP+/GFP- cells [3/3]. In general terms: In flow cytometry, cells or beads pass a laser one at a time.
Assay [11] addresses T3, SARS-COV-2 RBD (His-tagged, …). Put plainly: ELISA, periplasmic extract 1/10, OD450 antigen/OD450 BSA [D00002 FIG. 1 cont. D]. This is another data set of the same source.
Assay [12] shares this target. Put plainly: ELISA, periplasmic extract 1/10, OD450 antigen/OD450 BSA.

T1 sequence (P02769 25-607 limits assumed): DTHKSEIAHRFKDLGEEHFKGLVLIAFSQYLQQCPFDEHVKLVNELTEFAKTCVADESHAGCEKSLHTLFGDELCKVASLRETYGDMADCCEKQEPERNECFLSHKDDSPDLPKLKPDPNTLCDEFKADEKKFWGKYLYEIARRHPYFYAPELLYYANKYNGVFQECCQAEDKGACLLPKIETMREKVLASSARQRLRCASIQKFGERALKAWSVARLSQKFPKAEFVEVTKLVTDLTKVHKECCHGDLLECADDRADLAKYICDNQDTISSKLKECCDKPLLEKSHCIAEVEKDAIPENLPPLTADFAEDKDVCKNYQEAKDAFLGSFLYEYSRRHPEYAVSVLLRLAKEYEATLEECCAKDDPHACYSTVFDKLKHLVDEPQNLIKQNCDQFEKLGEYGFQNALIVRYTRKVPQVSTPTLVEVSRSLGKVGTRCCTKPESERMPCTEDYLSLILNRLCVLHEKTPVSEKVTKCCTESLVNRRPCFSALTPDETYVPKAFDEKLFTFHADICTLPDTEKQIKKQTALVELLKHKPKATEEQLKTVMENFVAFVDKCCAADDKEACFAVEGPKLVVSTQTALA

B1: VHH R3_DC23 (VHH)
VHH: QVQLQESGGGLVQAGDSLTLSCAVSGRIFSTYTMGWFRQAPGKEREFVAAVRWGAGTIYYADSMKGRFTISRDSAKNTVDLQMNSTKPEDTAVYYCGAAYVSKANYGSLWYQDSRRYDYWGQGTQVTVSS
With B1, the binding result with BSA [1] is “no binding (tested: 10 µg/ml)”; in assay [2], “no binding (tested: not given)”; in [3], “no binding (tested: 10 µg/ml)”.

B2: VHH R4_DC6 (VHH)
VHH: QVQLQESGGGLVQAGDSLRLSCAASGRILSTFTMGWFRQAPGKEREFVAAMRWNGGTKNYADSVKGRFTISRDNANSVVYLQMNSTKPEDTAVYYCAAAYVSKANYGSLWYRTPSLYDYWGQGTQVTVSS
Consider B2, for which the binding result in assay [4] is listed as “no binding (tested: 10 µg/ml)”; in [2], “no binding (tested: not given)”; with BSA [5], “no binding (tested: 10 µg/ml)”.

B3: VHH R3_C4 (VHH)
VHH: QVQLQESGGGLVQAGDSLRLSCAVSGRPFSTYTMGWFRQAPGKEREFVAAMRWSGGTIYYADSVKGRFTISRDNDKNTVNLEMNSLKPEDTAVYYCAAAYVSKANYGSLWYRASGLYDYWGQGTQVTVSS
On to B3, for which the binding result was “no binding (tested: 10 µg/ml)” with BSA [6]; “no binding (tested: not given)” in [7]; “no binding (tested: extract 1/10, concentration not given)” in assay [8].

B4: VHH R4_DC16 (VHH)
VHH: QVQLQESGGGLVQAGDSLRLSCAVSGRPFSTYTMGWFRQAPGKEREFVAAMRWSGGTIYYADSVKGRFTISRDNAQNTVNLQMNSLKPEDTAVYYCAAAYVSKANYGSSWYRNSGLYDYWGQGTQVTVSS
With B4, the binding result in assay [9] is given as “no binding (tested: extract 1/10, concentration not given)”; with BSA [6] it was “no binding (tested: 10 µg/ml)”; in [10] it was “no binding (tested: not given)”.

B5: VHH R4_DC13 (VHH)
VHH: QVQLQESGGGLVQTGDSLRLSCAVSGRPFSTYTMGWFRQAPGKEREFVASMRWSGGTVYYSDSVKGRFTISRDNDKNTVNLQMNNLKPEDTAVYYCAAAYVSKANYGSFWYRNSDLYDYWGQGTQVTVSS
With B5, the binding result in the assay with BSA [6] was “no binding (tested: 10 µg/ml)”; in [2], “no binding (tested: not given)”; in assay [11], “no binding (tested: extract 1/10, concentration not given)”.

B6: VHH R4_DC9 (VHH)
VHH: QVQLQESGGGLVQAGDSLRLSCAASGRIFSTYTMGWFRQAPGMEREFVAAIRWSGSTVYYADSVKGRFTISRDNAKNTVYLQMNSLKPEDTAVYYCAAARVSKANYGTLWYRASGLYDYWGQGTQVTVSS
As for B6, the results for the binding result (in assay [4]; in assay [2]; in the assay with BSA [5]) were “no binding (tested: 10 µg/ml)”, “no binding (tested: not given)” and “no binding (tested: 10 µg/ml)”, respectively.

B7: VHH R3_DC9 (VHH)
VHH: QVQLQESGGGLVQTGDSLRLSCAVSGRPFSTYTMGWFRQAPGKEREFVASMRWSGGTMYYSDSVKGRFTISRDNDKNTVNLQMNSLKPEDTAVYYCAAAYVSKANYGSLWYRNSGLYDYWGQGTQVTVSS
Take B7: the binding result in [12] is given as “no binding (tested: extract 1/10, concentration not given)”; in assay [7], “no binding (tested: not given)”.

B8: VHH R3_DC20 (VHH)
VHH: QVQLQESGGGLVQAGDSLRLSCAVSGRPFSTYTMGWFRQAPGKEREFVAAMRWSGGTIYYADSVKGRFTISRDNAQNTVNLQMNSLEPEDTAVYYCAAAYVSKANYGSLWYRNSGLYDYWGQGTQVTVSS
As to B8, the binding result is reported as “no binding (tested: extract 1/10, concentration not given)” in assay [12]; “no binding (tested: not given)” in assay [7]; “no binding (tested: 10 µg/ml)” with BSA [1].

B9: VHH R4_DC20 (VHH)
VHH: QVQLQESGGGLVQTGDSLRLSCAVSGRPFSTYTMGWFRQAPGKEREFVASMRWSGGTMNYADSVKGRFTISRDNDQNTVNLQMNSLKPEDTAVYYCAAAYVSKANYGSLWYRNSGLYDYWGQGTQVTVSS
On to B9, for which the binding result with BSA [1] is “no binding (tested: 10 µg/ml)”; in [3] it was “no binding (tested: 10 µg/ml)”; in [10], “no binding (tested: not given)”.

B10: VHH R3_DC2 (VHH)
VHH: QVQLQESGGGLVQTGDSLRLSCAVSGRPFSTYTMGWFRQAPGKEREFVASMRWSGGTKYYSDSVKGRFSISRDNDQNTVNLQMNSLKPEDTAVYYCAAAYVSKANYGSLWYRNSGLYDYWGQGTQVTVSS
For the molecule B10, the binding result in assay [12] is “no binding (tested: extract 1/10, concentration not given)”; with BSA [6], “no binding (tested: 10 µg/ml)”; in [7] it was “no binding (tested: not given)”.

The values are drawn from patent publication US20250313611A1 (VIB VZW, published 2025).
